The record followed here is IntAct's records for PubMed 21252223.

B1: Swi5-dependent recombination DNA repair protein 1 homolog (Homo sapiens), Q86XK3 (parent)
chain: MAEGEKNQDFTFKMESPSDSAVVLPSTPQASANPSSPYTNSSRKQPMSATLRERLRKTRFSFNSSYNVVKRLKVESEENDQTFSEKPASSTEENCLEFQESFKHIDSEFEENTNLKNTLKNLNVCESQSLDSGSCSALQNEFVSEKLPKQRLNAEKAKLVKQVQEKEDLLRRLKLVKMYRSKNDLSQLQLLIKKWRSCSQLLLYELQSAVSEENKKLSLTQLIDHYGLDDKLLHYNRSEEEFIDV
partner: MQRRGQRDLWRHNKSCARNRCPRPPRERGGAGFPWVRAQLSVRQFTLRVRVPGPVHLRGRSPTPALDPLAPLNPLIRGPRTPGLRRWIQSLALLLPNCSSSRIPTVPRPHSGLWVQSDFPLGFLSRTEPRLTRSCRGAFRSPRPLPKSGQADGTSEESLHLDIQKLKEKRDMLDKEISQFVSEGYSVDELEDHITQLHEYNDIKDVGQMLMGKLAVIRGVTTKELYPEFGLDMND

In the test the parent is B1. The note with it: with swi5_human SWI5, Q1ZZU3.
For the variant MAEGEKNQDFTFKMESPSDSAVVLPSTPQASANPSSPYTNSSRKQPMSATLRERLRKTRFSFNSSYNVVKRLKVESEENDQTFSEKPASSTEENCLEFQESFKHIDSEFEENTNLKNTLKNLNVCESQSLDSGSCSALQNEFVSEKLPKQRLNAEKAKLVKQVQEKEDLLRRPKLVKMYRSKNDLSQLQLLIKKWRSCSQLLLYELQSAVSEENKKLSLTQLIDHYGLDDKLLHYNRSEEEFIDV [L173P], the “effect of a mutation on the interaction” value is “with no effect”.
